Among the data in PMC9352680, “A comprehensive thermodynamic model for RNA binding by the Saccharomyces cerevisiae Pumilio protein PUF4” are Kd values, retold here.

This data set concerns the target T1, PUF4 RNA-binding domain (Saccharomyces cerevisiae, UniProt P25339 537-888).
T1 sequence: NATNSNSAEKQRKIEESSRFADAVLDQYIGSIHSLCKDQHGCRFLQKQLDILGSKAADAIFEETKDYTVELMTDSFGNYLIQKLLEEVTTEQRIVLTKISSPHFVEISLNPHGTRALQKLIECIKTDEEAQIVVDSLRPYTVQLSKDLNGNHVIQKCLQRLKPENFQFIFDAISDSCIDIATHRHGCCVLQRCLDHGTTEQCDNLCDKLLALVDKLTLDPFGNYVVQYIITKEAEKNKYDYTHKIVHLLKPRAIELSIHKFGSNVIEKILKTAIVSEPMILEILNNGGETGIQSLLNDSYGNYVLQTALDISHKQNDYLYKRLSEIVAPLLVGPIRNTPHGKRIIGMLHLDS
Kind of data set: Mg; RNA-MaP; 20 mM Na-HEPES pH 7.4, 30 mM KOAc, 0.75 mM MgCl2, 0.1% Tween-20, 5% glycerol, 0.1 mg/mL BSA, 2 mM DTT; 25 C; 0.0125-409.6 nM protein. The settings on record: tags: N-His6-TEV cleaved; C-SNAP kept, Cy3B-labelled; label: tethered on chip by stalled RNA polymerase.

For the molecule UCUCUUUCUGUAUAUUAUAUCUCUU (ssRNA) [Id_ii_S1_P4E.2_K4.1_C4.2_[C-2T]_[T-1C]_H4.1_A4.1_F4.1_T4.2_[G10T]_[T11A]], the Kd (in general, the free concentration of one partner at which half of the binding sites on the other are occupied at equilibrium, for simple one-to-one binding) turned out to be 0.738 nM.
To UCUCUUCUACACUAUAUGUCUCUU (ssRNA) [Id_ii_S1_P3E.4_K3.3_C3.2_H3.3_A3.1_F3.1_T3.2_[A10G]] belongs 1320 nM; to UCUCUUUCUGUAUAUUAAAUCUCUU (ssRNA) [Id_ii_S1_P4E.2_K4.1_C4.2_[C-2T]_[T-1C]_H4.1_A4.1_F4.1_T4.2_[G10A]_[T11A]], 1.06 nM; to UCUCUUGCUGUAUAUUAACUCUCUU (ssRNA) [Id_ii_S1_P4E.2_K4.1_C4.2_[C-2G]_[T-1C]_H4.1_A4.1_F4.1_T4.2_[G10A]_[T11C]], 1.52 nM.
Then UCUCUUUGCACAUUAUCUCUU (ssRNA) [Ib_S1_P4E.1_K4.1_C4.1_H4.1_[T3C]_A4.1_[T5C]_F4.1_T4.1], with 36.2 nM; and UCUCUUUUUGUAUAUUAUUUCUCUU (ssRNA) [Id_ii_S1_P4E.2_K4.1_C4.2_[C-2T]_H4.1_A4.1_F4.1_T4.2_[G10T]], with 0.679 nM; and UCUCUUGCUGUAUAUUAUUUCUCUU (ssRNA) [Id_ii_S1_P4E.2_K4.1_C4.2_[C-2G]_[T-1C]_H4.1_A4.1_F4.1_T4.2_[G10T]], with 1.28 nM.
To UCUCUUGUUGUAUAUUAGUUCUCUU (ssRNA) [Id_ii_S1_P4E.2_K4.1_C4.2_[C-2G]_H4.1_A4.1_F4.1_T4.2] belongs 0.355 nM; to UCUCUUCUACACUAUAUAUCUCUU (ssRNA) [If_S1_P3E.4_K3.3_C3.2_H3.3_A3.1_F3.1_T3.2], 1000 nM; to UCUCUUUCUGUAUAUUAGUUCUCUU (ssRNA) [Id_ii_S1_P4E.2_K4.1_C4.2_[C-2T]_[T-1C]_H4.1_A4.1_F4.1_T4.2], 0.308 nM.
In turn, UCUCUUUCUGUAUAUUAUUUCUCUU (ssRNA) [Id_ii_S1_P4E.2_K4.1_C4.2_[C-2T]_[T-1C]_H4.1_A4.1_F4.1_T4.2_[G10T]] registered a Kd of 0.502 nM.
Then UCUCUUUGUGUAUAUUAAAUCUCUU (ssRNA) [Id_ii_S1_P4E.2_K4.1_C4.2_[C-2T]_[T-1G]_H4.1_A4.1_F4.1_T4.2_[G10A]_[T11A]], with 1.47 nM.
To UCUCUUUAUGUAUAUUAGUUCUCUU (ssRNA) [Id_ii_S1_P4E.2_K4.1_C4.2_[C-2T]_[T-1A]_H4.1_A4.1_F4.1_T4.2] belongs 0.379 nM.
To UCUCUUUAUGUAUAUUAUUUCUCUU (ssRNA) [Id_ii_S1_P4E.2_K4.1_C4.2_[C-2T]_[T-1A]_H4.1_A4.1_F4.1_T4.2_[G10T]] belongs 1.07 nM; to UCUCUUUGUGUAUAUUAAUUCUCUU (ssRNA) [Id_ii_S1_P4E.2_K4.1_C4.2_[C-2T]_[T-1G]_H4.1_A4.1_F4.1_T4.2_[G10A]], 1.63 nM.
Turning to UCUCUUGUUGUAUAUUAUUUCUCUU (ssRNA) [Id_ii_S1_P4E.2_K4.1_C4.2_[C-2G]_H4.1_A4.1_F4.1_T4.2_[G10T]], the Kd turned out to be 0.762 nM.
To UCUCUUUAUGUAUAUUAAUUCUCUU (ssRNA) [Id_ii_S1_P4E.2_K4.1_C4.2_[C-2T]_[T-1A]_H4.1_A4.1_F4.1_T4.2_[G10A]] belongs 1.17 nM; to UCUCUUCUACACUAUAUCUCUCUU (ssRNA) [Id_ii_S1_P3E.4_K3.3_C3.2_H3.3_A3.1_F3.1_T3.2_[A10C]], 1460 nM; to UCUCUUUUUGUAUAUUAACUCUCUU (ssRNA) [Id_ii_S1_P4E.2_K4.1_C4.2_[C-2T]_H4.1_A4.1_F4.1_T4.2_[G10A]_[T11C]], 1.09 nM.
To UCUCUUUCUGUAUAUUAUGUCUCUU (ssRNA) [Id_ii_S1_P4E.2_K4.1_C4.2_[C-2T]_[T-1C]_H4.1_A4.1_F4.1_T4.2_[G10T]_[T11G]] belongs 0.963 nM; to UCUCUUUCUGUAUAUUAUCUCUCUU (ssRNA) [Id_ii_S1_P4E.2_K4.1_C4.2_[C-2T]_[T-1C]_H4.1_A4.1_F4.1_T4.2_[G10T]_[T11C]], 0.77 nM.
In turn, UCUCUUGCUGUAUAUUAAUUCUCUU (ssRNA) [Id_ii_S1_P4E.2_K4.1_C4.2_[C-2G]_[T-1C]_H4.1_A4.1_F4.1_T4.2_[G10A]] registered a Kd of 2.69 nM.
Then UCUCUUUUUGUAUAUUAUAUCUCUU (ssRNA) [Id_ii_S1_P4E.2_K4.1_C4.2_[C-2T]_H4.1_A4.1_F4.1_T4.2_[G10T]_[T11A]], with 1.24 nM; and UCUCUUUAUGUAUAUUAACUCUCUU (ssRNA) [Id_ii_S1_P4E.2_K4.1_C4.2_[C-2T]_[T-1A]_H4.1_A4.1_F4.1_T4.2_[G10A]_[T11C]], with 1.35 nM; and UCUCUUUGUGUAUAUUAUUUCUCUU (ssRNA) [Id_ii_S1_P4E.2_K4.1_C4.2_[C-2T]_[T-1G]_H4.1_A4.1_F4.1_T4.2_[G10T]], with 0.848 nM.
As to UCUCUUUUUGUAUAUUACUUCUCUU (ssRNA) [Id_ii_S1_P4E.2_K4.1_C4.2_[C-2T]_H4.1_A4.1_F4.1_T4.2_[G10C]], binding was put at a Kd of 0.909 nM.
To UCUCUUCUACACUAUAAUUCUCUU (ssRNA) [Id_ii_S1_P3E.4_K3.3_C3.2_H3.3_A3.1_F3.1_T3.2_[T9A]_[A10T]] belongs 1870 nM.
Then UCUCUUUAUGUAUAUUAGCUCUCUU (ssRNA) [Id_ii_S1_P4E.2_K4.1_C4.2_[C-2T]_[T-1A]_H4.1_A4.1_F4.1_T4.2_[T11C]], with 0.465 nM.
